Assay: soluble on expression in E. coli; label from the status in PepcDB or PDB records
In the case of “MAVESRSRVTSKLVKAHRAMLNSVTQEDLKVDRLPGADYPNPSKKYSSRTEFRDKTDYIMYNPRPRDEPSSENPVSVSPLLCELAAARSRIHFNPTETTIGIVTCGGICPGLNDVIRSITLTGINVYNVKRVIGFRFGYWGLSKKGSQTAIELHRGRVTNIHHYGGTILGSSRGPQDPKEMVDTLERLGVNILFTVGGDGTQRGALVISQEAKRRGVDISVFGVPKTIDNDLSFSHRTFGFQTAVEKAVQAIRAAYAEAVSANYGVGVVKLMGRDSGFIAAQAAVASAQANICLVPENPISEQEVMSLLERRFCHSRSCVIIVAEGFGQDWGRGSGGYDASGNKKLIDIGVILTEKVKAFLKANKSRYPDSTVKYIDPSYMIRACPPSANDALFCATLATLAVHEAMAGATGCIIAMRHNNYILVPIKVATSVRRVLDLRGQLWRQVREITVDLGSDVRLARKLEIRRELEAINRNRDRLHEELAKL”, the “soluble on expression in E. coli” value is reported as “soluble”. In the case of “MEIKEMVSLARKAQKEYQATHNQEAVDNICRAAAKVIYENAAILAREAVDETGMGVYEHKVAKNQGKSKGVWYNLHNKKSIGILNIDERTGMIEIAKPIGVVGAVTPTTNPIVTPMSNIIFALKTCNAIIIAPHPRSKKCSAHAVRLIKEAIAPFNVPEGMVQIIEEPSIEKTQELMGAVDVVVATGGMGMVKSAYSSGKPSFGVGAGNVQVIVDSNIDFEAAAEKIITGRAFDNGIICSGEQSIIYNEADKEAVFTAFRNHGAYFCDEAEGDRARAAIFENGAIAKDVVGQSVAFIAKKANINIPEGTRILVVEARGVGAEDVICKEKMCPVMCALSYKHFEEGVEIARTNLANEGNGHTCAIHSNNQAHIILAGSELTVSRIVVNAPSATTAGGHIQNGLAVTNTLGCGSWGNNSISENFTYKHLLNISRIAPLNSSIHIPDDKEIWEL”, the “soluble on expression in E. coli” value is reported as “soluble”. With “MAATATEKLPQLKSAVDGLTEMSENEKSGFINLVSRYLSGEAQHIEWSKIQTPTDEIVVPYDKMANVSEDASETKYLLDKLVVLKLNGGLGTTMGCTGPKSVIEVRDGLTFLDLIVIQIENLNNKYNCKVPLVLMNSFNTHDDTQKIVEKYTKSNVDIHTFNQSKYPRVVADEFVPWPSKGKTDKDGWYPPGHGDVFPSLMNSGKLDAFLSQGKEYVFIANSDNLGAIVDLKILKHLIQNKNEYCMEVTPKTLADVKGGTLISYEGKVQLLEIAQVPDEHVNEFKSIEKFKIFNTNNLWVNLKAIKKLVEADALKMEIIPNPKEVDGVKVLQLETAAGAAIRFFDNAIGVNVPRSRFLPVKATSDLLLVQSDLYTLVDGFVTRNKARTNPTNPAIELGPEFKKVASFLSRFKSIPSIVELDSLKVSGDVWFGSGVVLKGKVTVKANAGTKLEIPDNAVLENKDINGPEDL” the “soluble on expression in E. coli” value was “soluble”. For “MDALFNHKEFIRLSHEGNINYEKLKVPKNTELVNTADQRNSHVYLIIDGFVSISMNPESNSIYTILGKGSFVNYYSLFQGNVDDFLFKTISTCTVYKYTFKDLEYFLSMFPENFGFQFFIMRDLARHAFFKSLSSETSSSDKLELSFINIGKLHGTPYEKDSVILPKEMRTSVIAAYSNLSKSSFYKQLARLKDQGKIWKNDREWVLKNKEVYDYLKAREIDV”, the “soluble on expression in E. coli” value was “not soluble”. With “MGSDKIHHHHHHMNGHLNDCLICDGKLEYLDAAEEMECVICHKKHLNNVRCINRHYICDECHSKRGAKIILEVCRTTDSKNPIEIMQKLMAKPFIHMHGPEHHILTGAALLAAYHNSGGQLDLNKALNEIERRAKQVPGGACGFWGCCGAAISTGMFISIATGATPLSEREWSLSNLITSKVLRRISALGGPRCCKRNCFTAAKVAVEFTGEQLAVNMELPVDICCFFSPNNHECKGALCPYSPQHSNS” the “soluble on expression in E. coli” value was “not soluble”. In the case of “MNDRADFVVPDITTRKNVGLSHDANDFTLPQPLDRYSAEDHATWATLYQRQCKLLPGRACDEFLEGLERLEVDADRVPDFNKLNEKLMAATGWKIVAVPGLIPDDVFFEHLANRRFPVTWWLREPHQLDYLQEPDVFHDLFGHVPLLINPVFADYLEAYGKGGVKAKALGALPMLARLYWYTVEFGLINTPAGMRIYGAGILSSKSESIYCLDSASPNRVGFDLMRIMNTRYRIDTFQKTYFVIDSFKQLFDATAPDFAPLYLQLADAQPWGAGDIAPDDLVLNAGDHQGWADTEDV”, the “soluble on expression in E. coli” value is reported as “soluble”. With “MKFKNILFDFDDTLVDFYDAEKKAFYNLAQKYNHQPTQQDFEHFKKVNQAHWEAFQQNKLTKDEVLSQRFINYFNDYQIHVNGKEADKCFRAELAMAPVKLFDHTLEVIQQLKLNHSLYIVTNGVTETQLRRIAQTQFNEIFQDVFISEKAGFQKPMTEFFDFVFEHIGENNRNQTLIVGDSLTSDILGGKNANISTCWFNIRQKENHTSIQPDYIINDLSEMIRIVE” the “soluble on expression in E. coli” value was “not soluble”. For “SLHGELDKIYETLALAERRGPGPVDLLLCCGDFQAVRNEADLRCMAVPPKYRHMQTFYRYYSGEKKAPVLTLFIGGNHEASNHLQELPYGGWVAPNIYYLGLAGVVKYRGVRIGGISGIFKSHDYRKGHFECPPYNSSTIRSIYHVRNIEVYKLKQLKQPIDIFLSHDWPRSIYHYGNKKQLLKTKSFFRQEVENNTLGSPAASELLEHLKPTYWFSAHLHVKFAALMQHQAKDKGQTARATKFLALDKCLPHRDFLQILEIEHDPSAPDYLEYDIEWLTILRATDDLINVTGRLWNMPENNGLHARWDYSATEEGMKEVLEKLNHDLKVPCNFSVTAACYDPSKPQT”, the “soluble on expression in E. coli” value was “not soluble”. With “MDSARTFESIVIIFNPNSTGDAPELAQQLHGKLKELLTYQPEITLQPTEHAGHAVDLAREAASKGGDVLVVSVSGDGGYNEVVNGVMQADNPRAVAAVLAAGNANDHSRIIGTKPLEEAIAEGRVHNIDLLRIHTGQKENEPLEYAHSYIGFGLTPVVATELEKGSKGALKEMVTVIKSFSEFQPFAIRQSDGKRRKFDSLVFANINEMAKYATLSEAEDHPSDGKFEVIVFPHMPKWRVLLTALKATTQGLGDQPSVSSYEFTTLKPLPYQMDGEVKSVEANVKVTVESAPQALATLG” the “soluble on expression in E. coli” value was “soluble”. For “MMSVPQAREARRIDLGEMGWGEVQVDFYNPLVKRREIVMILHHELKPTPMRIMLRQKLAEVLGVDIKRIYIRYIKTGYGAGLSKVRVHVYDSPERALSFEPKYIIERNGGVNPFEEAEG”, the “soluble on expression in E. coli” value was “soluble”. In the case of “MSLDKIFVEEAVSELHTLQDMIRWTVSRFNAANLFYGQGTDNAWDEAVQLILPTLYLPIDVPPHVLSSRLTSSERLRVVERVIKRINDRTPVAYLTNKAWFCGLEFFVDSRVLVPRSPIGELIQNRFEPWLTEEPTRIMDLCTGSGCIAIACANAFPEAEVDAIDISVDALNVAEQNIQDHGLEQQVFPIRSDLFRDLPQEQYDLIVTNPPYVDQEDMDSLPSEFRHEPELGLAAGSDGLKLARRILANAPLYLKENGILVCEVGNSMVHMMEQYPHIPFTWLEFENGGHGVFLLTREQLIDCAADFALYKDEGHHHHHH”, the “soluble on expression in E. coli” value is reported as “soluble”. In the case of “MSLSNQLLLGMSEFGLSYIINFSEFNQHVLVPATTGSGKTTLLQLLVQHAVKFNFPVILIDGKGARDTLESMREIAKFYDKEVHAFTDDGDMRYNPVEHGNDISIRDKLVSLAETESVFYSGAAKALLQVTIQLLDEFKGAKVTLSGDTRTTETVERSLPFVQRFLLPRNVLHLFADAILPNNPKLFEIEVEKKIQKPKKKSVKEGSEILPDSDLDKEEKEEDSQIKNSKFRNISQLGIAQKETETIVLNPETLDLDSYYLLLKRNLRYLPTDKETGENIKQKLFERLFIRYEHKDSPFYLYATSEALQTNINMLLDSELGKLFDTKNAKNVLDVQEIVNQRKLVYVSFNGLIYKEYIRTLAQMLVGDVNYFASEMYRKNVKREVLVIFDEPASYLNETFIDMVNKGRGAGVYGIFTPQTMADIAKLGDKLMEQLVGNVNTLFIGKTNEKGEAEYWSETMGTYQDIDVTSVTEQEDGYSDVGKSDWSGDRGTKRNVDRFKISPNKIKELRTGEFIIYRTAENVNLPPQKVYVRNALEWLQKSNSEGHHHHHH”, the “soluble on expression in E. coli” value is reported as “soluble”.

Reference: the DeepSol protein solubility set
